{"source": "paper PMC13231165", "key": {"[1]": {"target": "PCV2 Rep WT (catalytically inactive) (Porcine circovirus 2 (PCV2)) (UniProt Q8BB16)", "sequence (Q8BB16 whole entry)": "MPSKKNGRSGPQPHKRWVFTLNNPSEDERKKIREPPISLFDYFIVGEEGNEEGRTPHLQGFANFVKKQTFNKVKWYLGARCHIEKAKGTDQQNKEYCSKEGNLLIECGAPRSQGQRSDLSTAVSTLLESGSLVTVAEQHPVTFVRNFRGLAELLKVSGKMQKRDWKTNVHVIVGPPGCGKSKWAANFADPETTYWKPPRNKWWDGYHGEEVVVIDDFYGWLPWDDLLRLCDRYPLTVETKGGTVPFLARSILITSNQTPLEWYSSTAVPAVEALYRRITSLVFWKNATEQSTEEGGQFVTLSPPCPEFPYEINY", "assay": "fluorescence polarization", "conditions": "50 mM NaCl, 50 mM HEPES pH 8.0, 0.05% Tween-20, 1 mM DTT, 5 uM MnCl2 (SI legend: 50 uM Mn2+) or EDTA; 10 nM FAM substrate, protein from 1 uM in 1:2 dilutions …"}, "[2]": {"target": "PCV2 Rep WT (catalytically inactive) (Porcine circovirus 2 (PCV2)) (UniProt Q8BB16)", "assay": "fluorescence polarization", "conditions": "50 mM NaCl, 50 mM HEPES pH 8.0, 0.05% Tween-20, 1 mM DTT, 5 uM MnCl2 (SI legend: 50 uM Mn2+) or EDTA; 10 nM FAM substrate, protein from 1 uM in 1:2 dilutions …", "remark": "listed apart in the source"}}, "data": [{"sequence": "CGTAAATATTACCGTC [HUHDNA_FAM]", "values": [{"measurement": "Kd", "setting": "[1]", "result": 30, "unit": "nM"}, {"measurement": "Kd", "setting": "[2]", "result": 6, "unit": "nM"}]}, {"sequence": "CGUAAAAUAUUACCGUC [HUHRNA_FAM]", "values": [{"measurement": "Kd", "setting": "[1]", "result": 100, "unit": "nM"}, {"measurement": "Kd", "setting": "[2]", "result": 90, "unit": "nM"}]}]}
